According to publication doi:10.1101/2020.02.18.954917 (bioRxiv, 2020):

Target: the molecule itself
Experiment: SEC + AUC

B1: ΔNterm-Them1 (Mus musculus Thioesterase superfamily member 1, thioesterase domains and START domain, residues 43-594) (enzyme, UniProt Q8VHQ9 43-594, looked up)
chain: YRNPTEVQMSQLVLPCHTNHRGELSIGQLLKWIDTTACLSAERHAGCPCVTASMDDIYFDHTISVGQVVNIKAKVNRAFNSSMEVGIQVVSEDLCSEKQWSVCKALATFVAHRELSKVKLKQVIPLTEEEKTEHGVAAERRRMRLVYADTIKDLLTHCVIQDDLDKDCSNMVPAEKTRVESVELVLPPHANHQGNTFGGQIMAWMENVATIAASRLCHAHPTLKAIEMFHFRGPSQVGDRLVLKAIVNNAFKHSMEVGVCVEAYRQEAETQRRHINSAFMTFVVLDKDDQPQKLPWIRPQPGEGERRYREASARKKIRLDRKYLVSCKQAEVALSVPWDPSNQVYLSYYNVSSLKTLMAKDNWVLSVEISEVRLYILEEDFLSFHLEMVVNVDAAQVFQLLSDLRRRPEWDKHYRSVELVQQVDEDDAIYHVISPALSGNTKPQDFVILASRRKPCDNGDPYVIALRSVTLPTHHETPEYQRGETLCSGFCLWREGDQMTKVSYYNQATPGFLNYVTTNVSGLSSEFYNTFKACESFLLDNRNDLAPSLQTL
  stoichiometry N: 3
